Where “and” joins values, the source holds several entries; their conditions need not be identical. Equal values may be shown once.
T1: Lectin/EGF fragment from E-selectin (UniProt P16581 22-178, limits assumed)
T1 construct: domain: Lectin/EGF fragment; Soluble fragment; also called lectin/EGF fragment of E-selectin
T1 sequence (looked up): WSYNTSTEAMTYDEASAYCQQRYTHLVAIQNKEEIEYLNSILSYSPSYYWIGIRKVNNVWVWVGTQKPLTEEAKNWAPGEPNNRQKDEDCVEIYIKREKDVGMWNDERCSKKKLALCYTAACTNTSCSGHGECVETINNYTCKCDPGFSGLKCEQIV


Experiments:
[1] = biological target: T1, Lectin/EGF fragment from E-selectin; experiment: BIAcore SPR, antibody immobilised, lectin/EGF fragment in fluid phase; duplicate
Description: (§1) The affinity of both mouse and CDR-grafted ENA-2 for E-selectin were measured using a BIAcore TH biosensor (Pharmacia). This instrument combines miniaturised fluid delivery with an optical detection system based on surface plasmon resonance, to monitor protein interactions in real time (Chaiken et al, (1991) Anal. Biochem 201 197–210). The antibodies were immobilised at similar densities onto the sensor surface and the lectin/EGF fragment of E-selectin used as antigen in the fluid phase.
(§2) Assays of both antibodies were run at the same time using the same dilutions of antigen. The KD measurements are given below. KD Measurements

[2] = biological target: T1, Lectin/EGF fragment from E-selectin; experiment: BIAcore SPR, antibody immobilised, lectin/EGF fragment in fluid phase; average
Description: as §1, §2

Row | Kd [1] | Kd [2] [nM] | Binder
1 | 5.38 nM and 5.48 nM | 5.43 | mouse ENA-2 (antibody, V domains shown, Mouse IgG1/kappa whole antibody purified from hybridoma supernatant; The entries may include leader residues; also called mENA-2; murine ENA-2) VH: QVQLQQSGTELVRPGASVTLSCKASGYTFTDHEMHWVKQTPVLGLEWIGTIDPETGGTAYNQKFKGKATLTADKSSTTAYMDLRGLTSEDSAVFYCTVLRMDYWGQGTSLTVSA VL: DIVMTQSPSSLTVTAGEKVTMRCKSSQSLLNSGNQQNYLTWYQQKPGQPPKLLIYWASTRESGVPDRFTGSGSGTDFTLTISSVQTEDLAVYYCQNDYDYPLTFGAGTKLEIKR
2 | 7.8 nM and 8.17 nM | 7.98 | CDR-grafted ENA-2 (hENA-2 wt) (antibody, V domains shown, CDR-grafted on human Eu frameworks, with a human kappa light chain (pENA204); Both gamma 1 (pENA212) and gamma 4 (pENA206) heavy chain vectors were made; The FcRI comparison uses the gamma 4 wild type; also called hEN2; gamma 4) VH: QVQLVQSGAEVKKPGSSVKVSCKASGYTFTDHEMHWVRQAPGQGLEWIGTIDPETGGTAYNQKFKGRATLTADKSTNTAYMDLSSLRSEDTAVYYCTVLRMDYWGQGTLVTVSS VL: DIQMTQSPSTLSASVGDRVTITCKSSQSLLNSGNQQNYLTWYQQKPGKAPKLLIYWASTRESGVPDRFTGSGSGTDFTLTISSLQPDDFAVYYCQNDYDYPLTFGQGTKVEIKR

From US6407214 (CELLTECH THERAPEUTICS, dated 2002)
